The test deals with secreted FLAG peptide-fused G6 polypeptide G6sec2 (produced with the pVL1393-F2G6sec2-derived recombinant virus) (human) (UniProt Q9BYG0). The test can be described thus: Western blotting with anti-FLAG antibody.

Regarding “anti-FLAG peptide antibody (of YEAST AMINO-TERMINAL FLAG EXPRESSION KIT, manufactured by SIGMA)”, the strength of band (band of G6sec1 eluate defined as 1) (relative to G6sec1 = 1) was determined as 1.05.
